Values quoted from earlier work in paper PMC8594252.

Target: HSPE1 (Homo sapiens) (UniProt P61604)

Kd: 3000 nM
Substance: HSPE1 (from UniProt P61604)
